Experimental findings from US8734803 are described below.

The assay addresses NA (neuraminidase) used in the NA activity inhibition experiments of Example 9. Put plainly: cell-based or functional assay.

B1: plant-produced humanized 2B9 antibody G2K3 (antibody, V domains shown)
VH: QVQLVQSGSELKKPGASVKMSCKAAGYTFTNYWIGWVRQAPGQGLEWIGDIYPENDFSNYNEKFKDRATLTADTSTRTAYMELSSLRSEDTAVYYCVRANEGWYLDVWGQGTTVTVSS
VL: DIQMTQSPSSLSASVGDRVTITCRASENIYSYLAWYQQKPGKAPKLLVYFAKTLAEGVPSRFSGSGSGTEFTLTISSLQPDDFANYYCQHHYGTPYTFGQGTKLEIKR
B1 registered an IC50, inhibition of NA activity of 0.5 µg/mL.

B2: plant-produced humanized 2B9 antibody G2K4 (antibody, V domains shown)
VH: QVQLVQSGSELKKPGASVKMSCKAAGYTFTNYWIGWVRQAPGQGLEWIGDIYPENDFSNYNEKFKDRATLTADTSTRTAYMELSSLRSEDTAVYYCVRANEGWYLDVWGQGTTVTVSS
VL: DIQMTQSPSSLSASVGDRVTITCRASENIYSYLAWYQQKPGKAPKLLVYFAKTLAEGVPSRFSGSGSGTEFTLTISSLQPDDFATYYCQHHYGTPYTFGQGTKLEIKR
Regarding B2, the IC50, inhibition of NA activity is 1.16 µg/mL.

B3: plant-produced humanized 2B9 antibody G5K4 (antibody, V domains shown)
VH: QVQLVQSGSELKKPGASVKVSCKAAGYTFTNYWIGWVRQAPGQGLEWIGDIYPENDFSNYNEKFKDRVTITADTSTSTAYMELSSLRSEDTAVYYCVRANEGWYLDVWGQGTTVTVSS
VL: DIQMTQSPSSLSASVGDRVTITCRASENIYSYLAWYQQKPGKAPKLLVYFAKTLAEGVPSRFSGSGSGTEFTLTISSLQPDDFATYYCQHHYGTPYTFGQGTKLEIKR
In turn, B3 had an IC50, inhibition of NA activity of 0.21 µg/mL.

B4: plant-produced humanized 2B9 antibody G5K3 (antibody, V domains shown)
VH: QVQLVQSGSELKKPGASVKVSCKAAGYTFTNYWIGWVRQAPGQGLEWIGDIYPENDFSNYNEKFKDRVTITADTSTSTAYMELSSLRSEDTAVYYCVRANEGWYLDVWGQGTTVTVSS
VL: DIQMTQSPSSLSASVGDRVTITCRASENIYSYLAWYQQKPGKAPKLLVYFAKTLAEGVPSRFSGSGSGTEFTLTISSLQPDDFANYYCQHHYGTPYTFGQGTKLEIKR
As for B4, the IC50, inhibition of NA activity came out at 0.45 µg/mL.
